Here are results for two molecules from PMC8142254, “The mycobacterial proteasomal ATPase Mpa forms a gapped ring to engage the 20S proteasome” (The Journal of Biological Chemistry, 2021).

Data set [1] concerns the target Mycobacterium tuberculosis proteasomal ATPase Mpa, full-length (1–609) (Mycobacterium tuberculosis) (UniProt P9WQN5). As to the kind of experiment: not stated; stoichiometry of the in vitro assembled Pup–FabD:Mpa complex; how it was found is not told.
The data set “cryo-EM structure” deals with the molecule itself. As to the kind of experiment: cryo-EM structure.

Molecule “Pup–FabD (Pup translationally fused to the N terminus of malonyl CoA-acyl carrier protein transacylase)” yielded a stoichiometry N (Pup–FabD per Mpa hexamer) in data set [1] of 1.

B1: Mycobacterium tuberculosis proteasomal ATPase Mpa, full-length (1–609) (enzyme)
chain: MGESERSEAFGIPRDSPLSSGDAAELEQLRREAAVLREQLENAVGSHAPTRSARDIHQLEARIDSLAARNSKLMETLKEARQQLLALREEVDRLGQPPSGYGVLLATHDDDTVDVFTSGRKMRLTCSPNIDAASLKKGQTVRLNEALTVVEAGTFEAVGEISTLREILADGHRALVVGHADEERVVWLADPLIAEDLPDGLPEALNDDTRPRKLRPGDSLLVDTKAGYAFERIPKAEVEDLVLEEVPDVSYADIGGLSRQIEQIRDAVELPFLHKELYREYSLRPPKGVLLYGPPGCGKTLIAKAVANSLAKKMAEVRGDDAHEAKSYFLNIKGPELLNKFVGETERHIRLIFQRAREKASEGTPVIVFFDEMDSIFRTRGTGVSSDVETTVVPQLLSEIDGVEGLENVIVIGASNREDMIDPAILRPGRLDVKIKIERPDAEAAQDIYSKYLTEFLPVHADDLAEFDGDRSACIKAMIEKVVDRMYAEIDDNRFLEVTYANGDKEVMYFKDFNSGAMIQNVVDRAKKNAIKSVLETGQPGLRIQHLLDSIVDEFAENEDLPNTTNPDDWARISGKKGERIVYIRTLVTGKSSSASRAIDTESNLGQYL
notes: Mpa (mycobacterial proteasome ATPase), Mycobacterium tuberculosis, full-length, residues 1-609; Homohexamer; In the cryo-EM model the coiled-coil domains and two of the six AAA domains are not resolved; also called mycobacterial proteasome ATPase; WT Mpa
For orientation: stoichiometry N means a count of units in the complex or per binding partner. As for B1, the “stoichiometry N” value in “cryo-EM structure” was 6.
